According to US8703915B2, “Mutant proteins and methods for producing them” (Heptares Therapeutics Limited, priority 2009, dated 2014):

Experiments:
OX2 receptor [1] = target: T1, OX2 receptor (Homo sapiens, UniProt O43614, F28L/I308V/Y91L); assay: Thermostability of OX2 receptor bound to antagonist EMPA; type: physicochemical; details: antagonist EMPA bound, compared to WT OX2
T1 construct: made in house; host or cells: transiently transfected mammalian cells (HEK293T inferred from 'as described for M4')
T1 sequence (O43614 1-444 F28L/Y91L/I308V): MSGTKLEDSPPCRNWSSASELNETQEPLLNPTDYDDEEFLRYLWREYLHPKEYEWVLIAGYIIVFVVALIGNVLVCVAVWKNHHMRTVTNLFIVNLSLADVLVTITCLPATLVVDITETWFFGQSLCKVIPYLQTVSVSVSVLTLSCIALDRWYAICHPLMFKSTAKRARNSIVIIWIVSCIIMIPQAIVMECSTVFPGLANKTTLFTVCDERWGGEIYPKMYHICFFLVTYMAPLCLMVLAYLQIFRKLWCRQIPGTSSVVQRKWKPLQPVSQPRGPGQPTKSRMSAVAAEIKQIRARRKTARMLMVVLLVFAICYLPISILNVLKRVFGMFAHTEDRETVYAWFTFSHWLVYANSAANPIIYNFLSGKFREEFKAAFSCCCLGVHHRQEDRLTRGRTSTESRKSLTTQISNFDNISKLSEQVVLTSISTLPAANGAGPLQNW
Procedure: (§1) Transiently transfected mammalian cells expressing M4 were harvested about 40 hours post transfection and the receptors were solubilised in 50 mM Tris pH 7.5/250 mM NaCl/1% DDM/EDTA free protease inhibitor mix for 1 hour rotating at 4° C. The solubilised lysate was then cleared by centrifugation at 13000 rpm for 15 minutes at 4° C. The solubilised receptors were then purified on Ni-NTA beads and eluted with 100 mM histidine. The eluted receptor was used in radioligand binding assay. Thermostability of M4 was measured using 25 μL of purified receptor mixed with 95 μL of 12 nM [^3H]-NMS (final concentration of 10 nM). The sample was incubated for 60 min at 4° C., then 30 min at the specified temperature and then 30 min at 4° C. Receptor bound and free radioligand were separated using a 96-well plate gel filtration assay.
(§2) A tandem alanine and leucine scanning mutagenesis strategy was used to identify mutations that enhanced the thermostability of OX2 bound to the small-molecule antagonist EMPA.
(§3) Thermostability assays were preformed on partially purified receptors as described for M4, with the following amendments. Cell lysates were solubilised in 50 mM Tris pH7.4, 150 mM NaCl, 1% DDM supplemented with 1× complete EDTA free protease inhibitor cocktail (Roche). Radioligand binding reactions were set up using 1/10 volume eluted receptor mixed with 20 nM ^3H-EMPA (final concentration) per temperature point.

OX2 receptor [2] = assay: as above; type: physicochemical, human; details: bound to antagonist EMPA
Procedure: as §1, §2, §3

A2A receptor = target: T2, A2A receptor (Homo sapiens, UniProt P29274, N284A); assay: Two point thermostability measurement, NECA binding to A2A alanine scan mutants in DDM; type: physicochemical; details: 4° C. versus destabilising temperature such as 30° C.
T2 construct: A2AR-(2-316) expression was carried out by using the pRG/III-hs-MBP E. coli expression vector; MBP (named only in the vector name); made in house
Procedure: In the A2A agonist-bound study the effect of mutations from the alanine scan were determined initially by two point thermostability measurements. In these experiments, the wild type receptors and receptors containing single mutants were solubilised in the detergent DDM and the amount of NECA binding retained at 4° C. and at a destabilising temperature such as 30° C. was determined. A>10% increase in agonist binding to the mutant receptor compared to the wild type receptor at the destabilising temperature is considered to be significant and is indicative of an increase in thermostability.

CRF1 [3] = target: T3, CRF1 (Homo sapiens, UniProt P34998, I163A); assay: Thermostability of CRF1 bound to antagonist CP-376395, purified in DDM; type: physicochemical; details: antagonist CP-376395 bound, versus CRF1 WT
T3 construct: made in house; host or cells: HEK293T cells, transient
T3 sequence (P34998 24-415 I163A): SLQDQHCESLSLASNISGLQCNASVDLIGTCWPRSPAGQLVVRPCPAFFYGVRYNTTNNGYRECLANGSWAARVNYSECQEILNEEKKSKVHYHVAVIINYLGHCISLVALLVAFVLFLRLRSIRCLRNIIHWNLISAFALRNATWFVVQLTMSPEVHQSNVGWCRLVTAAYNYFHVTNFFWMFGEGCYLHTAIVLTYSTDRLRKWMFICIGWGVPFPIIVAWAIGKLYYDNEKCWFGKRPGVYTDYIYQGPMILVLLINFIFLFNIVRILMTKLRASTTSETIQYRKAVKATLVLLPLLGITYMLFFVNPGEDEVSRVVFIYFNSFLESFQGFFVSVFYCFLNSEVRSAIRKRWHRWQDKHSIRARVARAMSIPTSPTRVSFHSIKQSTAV
Procedure: (§4) In order to stabilise CRF1 in the antagonist conformation, a systematic alanine-scan was performed to identify mutations that stabilise receptors bound to the antagonist ligand CP-376395. Mutating I2.58 to alanine (I163A) confers significant stabilisation in CRF1, increasing the thermal stability by 3.9 (±0.5)° C. (FIG. 15).
(§5) CRF1 receptors were transiently expressed in HEK293T cells on 10 cm plates using GeneJuice transfection reagent used according to manufacturers guidelines.
(§6) Cells expressing CRF1 were harvested in PBS approximately 40 hours post-transfection and re-suspended in 950 μl Re-suspension buffer (50 mM Tris-HCl, 150 mM NaCl, 2× Complete EDTA-free Protease inhibitor cocktail (Roche), pH7.5). Cells were incubated with 120 nM CP-376395 and 30 nM [^3H]-CP-376395 at 37° C. for 2 hours before transferring to ice for 5 minutes. The receptors were solubilised by the addition of 1% DDM and incubated at 4° C. for 1 hour with gentle agitation. Insoluble material was removed by centrifugation at 16000×g for 10 minutes at 4° C. The solubilised receptors were partially purified with Ni-NTA agarose (Qiagen). Ni-NTA resin was equilibrated in Equilibration buffer (50 mM Tris-HCl, 150 mM NaCl, 2× Complete EDTA-free Protease inhibitor cocktail (Roche), 0.025% DDM, pH7.5) and 400 μl of a 50:50 resin slurry was added to each sample. Resin slurries were incubated at 4° C. for 1 hour 30 minutes with gentle agitation to bind receptors. Resin slurries were then transferred to a batch column filter plate (Chromabond) and centrifuged at 1000×g for 1 minute, discarding the flow-through. Resin was washed twice with 1 ml of Wash buffer (50 mM Tris-HCl, 150 mM NaCl, 2× Complete EDTA-free Protease inhibitor cocktail (Roche), 0.025% DDM, 20 mM Imidazole, pH7.5) and then eluted in 1 ml of Elution buffer (50 mM Tris-HCl, 150 mM NaCl, 2× Complete EDTA-free Protease inhibitor cocktail (Roche), 0.025% DDM, 100 mM histidine, 30 nM [^3H]-CP-376395, 120 nM CP-376395, pH7.5) by resuspension at 4° C. for 30 minutes. Eluted samples were used directly in the thermostability assay. […]

CRF1 [4] = assay: as above; type: physicochemical, human; details: antagonist-bound state (CP-376395), purified in DDM
Procedure: as §4, §5, §6

[5] = target: neurotensin receptor NTS1 (Rattus norvegicus, UniProt P20789, Y369A); assay: Two point thermostability assay, neurotensin agonist binding to NTS1 alanine scan mutants; type: physicochemical
From the text: An alanine scan has been carried out on the rat neurotensin receptor NTS1 in the presence of the agonist neurotensin in order to stabilise the agonist conformation.

B1: OX2Y91L (protein, UniProt O43614 1-444, looked up, variant Y91L)
Orexin receptor type 2: MSGTKLEDSPPCRNWSSASELNETQEPFLNPTDYDDEEFLRYLWREYLHPKEYEWVLIAGYIIVFVVALIGNVLVCVAVWKNHHMRTVTNLFIVNLSLADVLVTITCLPATLVVDITETWFFGQSLCKVIPYLQTVSVSVSVLTLSCIALDRWYAICHPLMFKSTAKRARNSIVIIWIVSCIIMIPQAIVMECSTVFPGLANKTTLFTVCDERWGGEIYPKMYHICFFLVTYMAPLCLMVLAYLQIFRKLWCRQIPGTSSVVQRKWKPLQPVSQPRGPGQPTKSRMSAVAAEIKQIRARRKTARMLMIVLLVFAICYLPISILNVLKRVFGMFAHTEDRETVYAWFTFSHWLVYANSAANPIIYNFLSGKFREEFKAAFSCCCLGVHHRQEDRLTRGRTSTESRKSLTTQISNFDNISKLSEQVVLTSISTLPAANGAGPLQNW
OX2 receptor [1]
  increase of Tm: 1 °C
OX2 receptor [2]
  Tm: 29.69 °C

B2: N284: adenosine A2A receptor alanine scan mutant of Asparagine 284 (protein, listed as Homo sapiens)
chain: MPIMGSSVYITVELAIAVLAILGNVLVCWAVWLNSNLQNVTNYFVVSLAAADIAVGVLAIPFAITISTGFCAACHGCLFIACFVLVLTQSSIFSLLAIAIDRYIAIRIPLRYNGLVTGTRAKGIIAICWVLSFAIGLTPMLGWNNCGQPKEGKNHSQGCGEGQVACLFEDVVPMNYMVYFNFFACVLVPLLLMLGVYLRIFLAARRQLKQMESQPLPGERARSTLQKEVHAAKSLAIIVGLFALCWLPLHIINCFTFFCPDCSHAPLWLMYLAIVLSHTNSVVAPFIYAYRIREFRQTFRKIIRSHVLRQQEPFKAAGTSARVLAAHGSDGEQVSLRLNGHPPGVWANGSAPHPERRPNGYALGLVSGGSAQESQGNTGLPDVELLSHELKGVCPEPPGLDDPLAQDGAGVS
A2A receptor
  thermostability (agonist binding at the destabilising temperature compared to wild type): increased thermostability

B3: CRF1 I163A: human CRF1 mutant, I2.58 to alanine (I163A) (protein, UniProt P34998 24-415, looked up, variant I163A)
Corticotropin-releasing …: SLQDQHCESLSLASNISGLQCNASVDLIGTCWPRSPAGQLVVRPCPAFFYGVRYNTTNNGYRECLANGSWAARVNYSECQEILNEEKKSKVHYHVAVIINYLGHCISLVALLVAFVLFLRLRSIRCLRNIIHWNLISAFALRNATWFVVQLTMSPEVHQSNVGWCRLVTAAYNYFHVTNFFWMFGEGCYLHTAIVLTYSTDRLRKWMFICIGWGVPFPIIVAWAIGKLYYDNEKCWFGKRPGVYTDYIYQGPMILVLLINFIFLFNIVRILMTKLRASTTSETIQYRKAVKATLVLLPLLGITYMLFFVNPGEDEVSRVVFIYFNSFLESFQGFFVSVFYCFLNSEVRSAIRKRWHRWQDKHSIRARVARAMSIPTSPTRVSFHSIKQSTAV
CRF1 [3]
  increase of thermal stability: 3.9 (±0.5) ° C.
CRF1 [4]
  Tm: 30.7 °C

B4: Y369: rat neurotensin receptor NTS1 mutant, residue 7.53 (Y369) to alanine (protein, listed as Rattus norvegicus)
chain: MHLNSSVPQGTPGEPDAQPFSGPQSEMEATFLALSLSNGSGNTSESDTAGPNSDLDVNTDIYSKVLVTAIYLALFVVGTVGNSVTAFTLARKKSLQSLQSTVHYHLGSLALSDLLILLLAMPVELYNFIWVHHPWAFGDAGCRGYYFLRDACTYATALNVASLSVERYLAICHPFKAKTLMSRSRTKKFISAIWLASALLAIPMLFTMGLQNRSGDGTHPGGLVCTPIVDTATVKVVIQVNTFMSFLFPMLVISILNTVIANKLTVMVHQAAEQGRVCTVGTHNGLEHSTFNMTIEPGRVQALRHGVLVLRAVVIAFVVCWLPYHVRRLMFCYISDEQWTTFLFDFYHYFYMLTNALFYVSSAINPILANLVSANFRQVFLSTLACLCPGWRHRRKKRPTFSRKPNSMSSNHAFSTSATRETLY
[5]
  thermostability (agonist binding at the destabilising temperature compared to wild type): increased agonist binding compared to the wild type receptor
